Measured values from patent US12344663B2, “Anti-C3 antibodies and antigen-binding fragments thereof and their uses for treating eye or ocular diseases” (CDR-Life AG, priority 2021, dated 2025).

Columns and labels:
human C3b = molecular target: T1, human C3b (Homo sapiens, UniProt P01024); test: SPR (Biacore T100) binding to human C3b
T1 construct: C3b is derived from native C3 and is the larger of two elements formed by the cleavage of C3
Experimental: (§1) The kinetic parameters of the candidates are determined using a surface plasmon resonance (SPR) and Biacore T100 device. C3 and different variants thereof (Table 19) are immobilized as a ligand on a HC30M SPR sensor chip (XanTec bionanalytics, Germany) using EDC/[…] linking chemistry. Five increasing concentrations of each molecule (analyte) are consecutively injected using the single cycle kinetics (SCK) mode to determine the kinetic parameters. Regeneration between the candidates is done with 10 mM glycine*HCl, 2 M NaCl, pH 3.5. The data is fitted to a 1:1 Langmuir binding model and the kinetic parameters of on-rate (ka), off-rate (kd), and affinity […] were determined.

complement pathways = test: Complement inhibition assays, comparison with parental Clone IV; type: biochemical, human; settings: in words
From the text: To identify antibodies that block all 3 complement pathways, antibodies are screened using an enzyme immunoassay for the qualitative determination of functional classical, lectin and alternative complement pathways in human serum using the WEISLAB® Complement system Screen (Svar Life Science AB, Malmö, Sweden).

human C3 = human C3 (Homo sapiens, UniProt P01024); test: SPR (Biacore T100) binding to human C3; settings: for Binding affinity to C3 and C3b compared to parental molecule Clone IV: in words
human C3, sequence (P01024 23-1663): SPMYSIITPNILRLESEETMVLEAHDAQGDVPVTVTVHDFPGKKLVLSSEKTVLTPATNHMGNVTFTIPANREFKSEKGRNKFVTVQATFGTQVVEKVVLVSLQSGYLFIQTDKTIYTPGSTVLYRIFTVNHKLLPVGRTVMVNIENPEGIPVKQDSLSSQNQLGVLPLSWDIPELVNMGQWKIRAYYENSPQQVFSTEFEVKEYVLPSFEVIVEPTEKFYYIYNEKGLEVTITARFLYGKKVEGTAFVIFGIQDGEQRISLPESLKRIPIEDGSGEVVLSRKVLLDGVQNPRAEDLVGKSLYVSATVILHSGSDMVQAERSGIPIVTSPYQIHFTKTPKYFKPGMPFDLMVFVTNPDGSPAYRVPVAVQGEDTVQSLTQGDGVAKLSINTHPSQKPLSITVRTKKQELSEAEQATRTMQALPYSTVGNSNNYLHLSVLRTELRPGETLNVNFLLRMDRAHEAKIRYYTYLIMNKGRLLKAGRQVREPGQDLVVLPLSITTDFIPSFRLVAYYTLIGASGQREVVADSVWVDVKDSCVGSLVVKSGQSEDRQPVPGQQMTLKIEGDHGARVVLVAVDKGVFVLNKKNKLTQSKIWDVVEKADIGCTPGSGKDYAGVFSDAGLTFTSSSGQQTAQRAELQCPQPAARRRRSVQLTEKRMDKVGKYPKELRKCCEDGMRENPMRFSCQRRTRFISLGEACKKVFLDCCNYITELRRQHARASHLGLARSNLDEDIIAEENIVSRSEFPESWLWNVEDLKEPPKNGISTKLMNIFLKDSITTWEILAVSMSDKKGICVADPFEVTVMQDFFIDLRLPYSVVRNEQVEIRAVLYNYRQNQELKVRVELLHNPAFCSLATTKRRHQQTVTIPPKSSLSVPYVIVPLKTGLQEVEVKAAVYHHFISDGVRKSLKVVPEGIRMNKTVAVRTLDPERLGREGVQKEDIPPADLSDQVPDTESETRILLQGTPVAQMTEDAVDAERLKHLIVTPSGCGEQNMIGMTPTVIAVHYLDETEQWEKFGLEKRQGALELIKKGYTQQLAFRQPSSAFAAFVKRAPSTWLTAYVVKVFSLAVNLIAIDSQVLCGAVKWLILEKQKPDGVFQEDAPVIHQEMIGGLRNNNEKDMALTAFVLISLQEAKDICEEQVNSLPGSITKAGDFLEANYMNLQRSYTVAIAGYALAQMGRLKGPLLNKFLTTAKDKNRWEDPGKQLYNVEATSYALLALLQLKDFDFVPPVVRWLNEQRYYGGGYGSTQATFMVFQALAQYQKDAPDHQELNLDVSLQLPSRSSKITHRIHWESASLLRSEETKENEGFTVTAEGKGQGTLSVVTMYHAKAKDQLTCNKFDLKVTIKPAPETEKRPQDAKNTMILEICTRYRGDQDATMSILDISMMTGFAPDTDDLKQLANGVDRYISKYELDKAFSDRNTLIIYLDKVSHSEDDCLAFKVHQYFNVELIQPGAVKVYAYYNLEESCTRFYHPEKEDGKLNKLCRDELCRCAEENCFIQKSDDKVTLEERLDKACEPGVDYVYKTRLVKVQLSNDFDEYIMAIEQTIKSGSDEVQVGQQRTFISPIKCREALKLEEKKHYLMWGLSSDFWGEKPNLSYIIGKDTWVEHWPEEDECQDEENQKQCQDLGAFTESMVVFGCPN
Experimental: as §1

[1] = Storage stability at 150 mg/ml, oligomerization by SE-HPLC; type: physicochemical; settings: decrease in monomeric content versus start
Experimental: (§2) Clone I, clone II and clone III are tested for storage stability. Samples are concentrated to 150 mg/ml (Vivaspin20 centrifugal device, 5 kDa MWCO at 3800×g) and stored at 25° C. and 40° C. for up to 4 weeks. Samples are analyzed for oligomerization (SE-HPLC) and chemical degradation (IEX-HPLC). The starting monomeric purity as determined by SE-HPLC was 99.96% for each clone. The starting charge purity, as determined by IEX-HPLC was 98.07%, 97.16% and 96.76%, respectively for clone I, II and III.

[2] = Storage stability at 150 mg/ml, chemical degradation by IEX-HPLC; type: physicochemical
Experimental: as §2

human C3 P314L = molecular target: T2, human C3 P314L (Homo sapiens, UniProt P01024, P314L); test: SPR (Biacore T100) binding to C3 SNP1 P314L
T2 construct: 6×His (N); made in house; host or cells: CHO (ExpiFectamine CHO Expression Kit)
T2 sequence (P01024 23-1663 P314L): as the sequence (P01024 23-1663) above, with P292L counted along it
Experimental: as §1
Single nucleotide polymorphism (SNP) in C3 has been observed across the population and certain SNPs were identified in genome-wide association studies (GWAS) to correlate with an increased risk to develop AMD. […] Very rare variants, which occur in less that 2.5% of the population include K155Q, R735W, S1619W, K65Q and R161W.
(§3) Proteins are expressed with N-terminal 6×His tag and purified using a HisTrap Excel HP column (GE Healthcare), followed by a size-exclusion chromatography step (SUPERDEX®20010/300GL; GE Healthcare).

[3] = Viscosity at high concentrations, cone-plate-rheometer; type: physicochemical; settings: 20° C., shear-rate 1000 s^−1
Experimental: Viscosity measurements are performed with the samples prepared for the storage stability study. In addition to the fully formulated samples (10 mM His pH 5.5, 275 mM sucrose, 0.02% w/v Polysorbate20), viscosity of each candidate is also measured in a minimal formulation (10 mM histidine pH 5.5). This is performed to evaluate the drug substance processability (e.g., filtration, pumping, diafiltration, etc.) of the candidates up to 125% of the final drug product concentration of 150 mg/ml.
Viscosity is measured at 20° C. at a shear-rate of 1000 s^−1 using a cone-plate-rheometer. Briefly, a stepwise increase of the shear rate up to 1,000 s^−1 is done collecting 100 data points, followed by a further increase of the shear rate up to 2000 s^−1, collecting another 10 data points. Finally, a stepwise decrease of the shear rate down to starting rate is done. Good drug product handling properties for filling and syringeability have been observed for all candidates

cyno C3 = test: SPR (Biacore T100) binding to cyno C3; parameters: species or system cynomolgus (Macaca fascicularis)
Experimental: as §1

human C3 R102G = molecular target: T3, human C3 R102G (Homo sapiens, UniProt P01024, R102G); test: SPR (Biacore T100) binding to C3 SNP2 R102G
T3 construct: 6×His (N); made in house; host or cells: CHO (ExpiFectamine CHO Expression Kit)
T3 sequence (P01024 23-1663 R102G): as the sequence (P01024 23-1663) above, with R80G counted along it
Experimental: as §1
Single nucleotide polymorphism (SNP) in C3 has been observed across the population and certain SNPs were identified in genome-wide association studies (GWAS) to correlate with an increased risk to develop AMD. Common SNP variants include P314L, which occurs in approximately 23.3% of population, and R102G, which has been reported to occur in approximately 26-29% of population. Very rare variants, which occur in less that 2.5% of the population include K155Q, R735W, S1619W, K65Q and R161W.
The inventors therefore measured the binding affinity of the scFv of the invention to the most commonly occurring C3 forms, i.e., R102G and P314L. Wild-type human C3, human C3 P314L and human C3 R102G are expressed in the CHO cell line using the ExpiFectamine CHO Expression Kit (Thermo Fisher Scientific). Proteins are expressed with N-terminal 6×His tag and purified using a HisTrap Excel HP column (GE Healthcare), followed by a size-exclusion chromatography step (SUPERDEX®20010/300GL; GE Healthcare).

[4] = molecular target: T4, recombinant C3 (wild-type human C3) (Homo sapiens, UniProt P01024); test: SPR (Biacore T100) binding to recombinant C3
T4 construct: 6×His (N); made in house; host or cells: CHO (ExpiFectamine CHO Expression Kit)
T4 sequence (P01024 23-1663): as the sequence (P01024 23-1663) above
Experimental: as §1, §3

[5] = Concentration-dependent monomeric stability study at 37° C.; type: physicochemical; settings: for Monomeric purity/content loss after two weeks incubation at 37° C.: >100 mg/mL protein concentration; for Monomeric content after 2 weeks at 37° C. / Monomeric content at start: Clone XI 152 mg/mL, Clone X 100 mg/mL
Experimental: The stability of Clone VI's heavy chain framework was explored by introducing framework substitutions, thereby creating inter alia Clone X (SEQ ID NO: 38). Clone X and its disulfide bond stabilized variant Clone XI (SEQ ID NO: 39) were compared in a stability study at 37° C. and >100 mg/mL protein concentration.

T1 sequence (P01024 23-667 limits assumed): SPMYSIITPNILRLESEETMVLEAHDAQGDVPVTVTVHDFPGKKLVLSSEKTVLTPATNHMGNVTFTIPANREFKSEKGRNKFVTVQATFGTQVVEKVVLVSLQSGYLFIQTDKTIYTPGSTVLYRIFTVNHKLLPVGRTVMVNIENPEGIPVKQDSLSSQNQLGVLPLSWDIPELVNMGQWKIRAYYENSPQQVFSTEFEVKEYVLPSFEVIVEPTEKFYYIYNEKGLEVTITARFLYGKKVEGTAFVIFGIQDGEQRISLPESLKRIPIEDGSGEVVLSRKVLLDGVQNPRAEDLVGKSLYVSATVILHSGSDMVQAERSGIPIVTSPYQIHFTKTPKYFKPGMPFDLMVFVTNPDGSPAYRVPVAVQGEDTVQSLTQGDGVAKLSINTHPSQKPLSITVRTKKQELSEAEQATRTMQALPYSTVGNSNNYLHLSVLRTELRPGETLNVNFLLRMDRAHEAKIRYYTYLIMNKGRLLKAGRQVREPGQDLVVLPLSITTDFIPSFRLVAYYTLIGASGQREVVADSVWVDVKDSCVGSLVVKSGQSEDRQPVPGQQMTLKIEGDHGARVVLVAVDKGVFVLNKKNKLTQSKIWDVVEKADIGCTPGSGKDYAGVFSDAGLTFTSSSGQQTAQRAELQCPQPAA
T1 sequence (P01024 749-1663 limits assumed): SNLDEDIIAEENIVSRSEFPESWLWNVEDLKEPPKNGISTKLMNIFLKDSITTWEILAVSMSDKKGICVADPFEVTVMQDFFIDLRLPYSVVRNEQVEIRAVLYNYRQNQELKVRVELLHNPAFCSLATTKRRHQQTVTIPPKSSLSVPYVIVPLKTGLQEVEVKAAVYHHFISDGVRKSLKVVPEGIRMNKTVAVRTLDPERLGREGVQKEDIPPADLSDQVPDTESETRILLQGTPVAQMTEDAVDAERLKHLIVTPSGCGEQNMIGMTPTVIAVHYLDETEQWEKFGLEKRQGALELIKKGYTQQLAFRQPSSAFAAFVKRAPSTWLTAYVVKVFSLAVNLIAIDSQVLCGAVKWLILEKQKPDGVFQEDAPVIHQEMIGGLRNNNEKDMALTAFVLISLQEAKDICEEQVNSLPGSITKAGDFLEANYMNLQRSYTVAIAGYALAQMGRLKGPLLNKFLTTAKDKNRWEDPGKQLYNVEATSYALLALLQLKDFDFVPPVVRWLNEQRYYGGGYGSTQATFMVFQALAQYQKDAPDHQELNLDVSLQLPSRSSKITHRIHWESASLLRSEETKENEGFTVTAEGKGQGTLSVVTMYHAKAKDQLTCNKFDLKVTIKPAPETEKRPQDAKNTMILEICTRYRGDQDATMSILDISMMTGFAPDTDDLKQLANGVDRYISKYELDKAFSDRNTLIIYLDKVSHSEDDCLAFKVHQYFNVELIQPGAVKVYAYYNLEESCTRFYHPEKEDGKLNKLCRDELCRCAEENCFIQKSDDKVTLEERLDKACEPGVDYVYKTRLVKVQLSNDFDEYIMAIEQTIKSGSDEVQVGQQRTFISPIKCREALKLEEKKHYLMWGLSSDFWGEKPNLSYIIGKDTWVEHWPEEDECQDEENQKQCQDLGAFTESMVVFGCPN

B1: Compound A3 Fab: NGM621 surrogate in a Fab format (antibody, V domains shown)
VH: QVQLVQSGAEVKKPGASVKVSCKASGYTFTDFYMDWVRQAPGQRLEWMGYIYPHNGGTTYNQQFTGRVTITVDKSASTAYMELSSLRSEDTAVYYCARRGGFDFDYWGQGTLVTVSS
VL: DIQMTQSPSSLSASVGDRVTITCKASENVDTYVSWYQQKPGKAPKLLIYGASNRYTGVPSRFSGSGSGTDFTFTISSLQPEDIATYHCGQSHSYPLTFGQGTKLEIKR
Kd (human C3b; Table 19, SPR, read-out: Affinity human C3b): > 34 nM

B2: Clone VII: affinity maturation hit scFv, SEQ ID NO: 35 (protein)
scFv: MQLVLTQSPSASASLGASVKLTCTLSSAHKTYTIDWYQQQPEKGPRYLMQLKSEGSYTKGTGVPDRFSGSSSGAERYLTISSLQSEDSAVYYCGTEGVGGYVFGCGTKLTVLGGGGGSGGGGSGGGGSGGGGSQVQVVESGGGSVQPGRSLRLSCAVSGFSLYNYAMNWVRQAPGKCLEWIGIINVGGGTNYASWAKGRFTISTDNSKNTVYLQMNSLRAEDTASYYCARAVGYHHHALDPWGQGTSVTVSS
modifications: ScFv
Complement inhibition activity compared to parental molecule Clone IV (complement pathways): comparable | Binding affinity to C3 and C3b compared to parental molecule Clone IV (human C3): comparable binding affinity

B3: Clone IX: affinity maturation hit scFv, SEQ ID NO: 37 (protein)
scFv: MQLVLTQSPSASASLGASVKLTCTLSSAHKTYTIDWYQQQPEKGPRYLMQLKSEGSYTKGTGVPDRFSGSSSGAERYLTISSLQSEDSAVYYCGTDGVGGYVFGCGTKLTVLGGGGGSGGGGSGGGGSGGGGSQVQVVESGGGSVQPGRSLRLSCAVSGFSLYNYAMNWVRQAPGKCLEWIGIINVGGGTNYASWAKGRFTISTDNSKNTVYLQMNSLRAEDTASYYCARAVGYHHHALDPWGQGTSVTVSS
modifications: ScFv
Complement inhibition activity compared to parental molecule Clone IV (complement pathways): comparable | Binding affinity to C3 and C3b compared to parental molecule Clone IV (human C3): comparable binding affinity

B4: Clone III: humanized anti-C3 scFv, VH SEQ ID NO: 24, VL SEQ ID NO: 25; scFv SEQ ID NO: 30 or 31 (protein)
scFv: MQLVLTQSPSASASLGASVKLTCTLSSAHKTYTIDWYQQQPEKCPRYLMQLKSEGSYTKGSGIPDRFSGSSSGAERYLTISSLQSEDEADYYCGTEGVGGYVFGGGTKLTVLGGGGGSGGGGSGGGGSGGGGSQVQLVESGGGSVQPGRSLRLSCAASGFTFSNYAMNWVRQAPGKGLEWVAIINVGGGTNYADSVKGRFTISRDNSKNTLYLQMNSLRAEDTASYYCARAVGYHHARLDPWGCGTSVTVSS
Storage stability, SEC 4 weeks at 25° C. [D %] [1]: 0.10 D % | Storage stability, SEC 4 weeks at 40° C. [D %] [1]: 0.84 D % | kd C3b (human C3b; off-rate): 3.1e-05 s⁻¹ | ka C3b (human C3b; on-rate): 250000 M⁻¹ s⁻¹ | Starting charge purity (IEX-HPLC) ([2]; before storage): 96.76% | Storage stability, IEX 4 weeks at 25° C. [D %] ([2]; decrease versus start): 0.3 D % | Storage stability, IEX 4 weeks at 40° C. [D %] ([2]; decrease versus start): 3.6 D % | kd C3 SNP1 P314L (human C3 P314L; off-rate): 3.2e-05 s⁻¹ | ka C3 SNP1 P314L (human C3 P314L; on-rate): 250000 M⁻¹ s⁻¹ | Viscosity [mPa * s] Fully formulated at 150 g/L ([3]; 10 mM His pH 5.5, 275 mM sucrose, 0.02% w/v Polysorbate20): 3.3 mPa * s | Viscosity [mPa * s] Minimal buffer at 185 g/L ([3]; 10 mM His pH 5.5): 3.2 mPa * s | kd cyno C3 (cyno C3; off-rate): 4.3e-05 s⁻¹ | ka cyno C3 (cyno C3; on-rate): 200000 M⁻¹ s⁻¹ | kd C3 (human C3; off-rate): 3.6e-05 s⁻¹ | ka C3 (human C3; on-rate): 240000 M⁻¹ s⁻¹ | kd C3 SNP2 R102G (human C3 R102G; off-rate): 3.2e-05 s⁻¹ | ka C3 SNP2 R102G (human C3 R102G; on-rate): 280000 M⁻¹ s⁻¹ | kd recombinant C3 ([4]; off-rate): 3.5e-05 s⁻¹ | ka recombinant C3 ([4]; on-rate): 270000 M⁻¹ s⁻¹

B5: Clone V: reformatted and humanized scFv variant of Clone IV, SEQ ID NO: 33 (protein)
scFv: MQLVLTQSPSASASLGASVKLTCTLSSAHKTYTIDWYQQQPEKGPRYLMQLKSDGSYTKGTGVPDRFSGSSSGAERYLTISSLQSEDEADYYCGTDYGGGYVFGGGTKLTVLGGGGGSGGGGSGGGGSGGGGSQVQVVESGGGSVQPGRSLRLSCAASGFSLYNYAMNWVRQAPGKGLEWIGIINTDGNTNYASWAKGRFTISTDNSKNTLYLQMNSLRAEDTASYYCPRAVGYHHHALDPWGQGTSVTVSS
modifications: ScFv
Complement inhibition activity compared to parental molecule Clone IV (complement pathways): retains its ability to inhibit the classical and alternative complement pathways | Binding affinity to C3 and C3b compared to parental molecule Clone IV (human C3): lower binding affinity

B6: Clone X: Clone VI with heavy chain framework substitutions, SEQ ID NO: 38 (protein)
scFv: MQLVLTQSPSASASLGASVKLTCTLSSAHKTYTIDWYQQQPEKGPRYLMQLKSDGSYTKGTGVPDRFSGSSSGAERYLTISSLQSEDEADYYCGTDYGGGYVFGGGTKLTVLGGGGGSGGGGSGGGGSGGGGSQVQVVESGGGSVQPGRSLRLSCTVSGFSLYNYAMNWVRQAPGKGLEWIGIINTDGNTNYASWAKGRFTISTDNSKNTVYLQMNSLRAEDTASYYCARAVGYHHHALDPWGQGTSVTVSS
modifications: ScFv
Monomeric purity/content loss after two weeks incubation at 37° C. [5]: 60.4% | Monomeric content after 2 weeks at 37° C. [5]: 39.3% | Monomeric content at start [5]: 99.7%

B7: Clone XI: disulfide bond stabilized variant of Clone X, SEQ ID NO: 39 (protein)
scFv: MQLVLTQSPSASASLGASVKLTCTLSSAHKTYTIDWYQQQPEKCPRYLMQLKSDGSYTKGTGVPDRFSGSSSGAERYLTISSLQSEDEADYYCGTDYGGGYVFGGGTKLTVLGGGGGSGGGGSGGGGSGGGGSQVQVVESGGGSVQPGRSLRLSCTVSGFSLYNYAMNWVRQAPGKGLEWIGIINTDGNTNYASWAKGRFTISTDNSKNTVYLQMNSLRAEDTASYYCARAVGYHHHALDPWGCGTSVTVSS
modifications: ScFv
Monomeric purity/content loss after two weeks incubation at 37° C. [5]: 3.3% | Monomeric content after 2 weeks at 37° C. [5]: 96.5% | Monomeric content at start [5]: 99.8%
